# Measured values as given in IntAct's records for PubMed 9520446.
# B1: Mitogen-activated protein kinase kinase kinase 14 (Homo sapiens), Q99558 (parent)
# chain: MAVMEMACPGAPGSAVGQQKELPKAKEKTPPLGKKQSSVYKLEAVEKSPVFCGKWEILNDVITKGTAKEGSEAGPAAISIIAQAECENSQEFSPTFSERIFIAGSKQYSQSESLDQIPNNVAHATEGKMARVCWKGKRRSKARKKRKKKSSKSLAHAGVALAKPLPRTPEQESCTIPVQEDESPLGAPYVRNTPQFTKPLKEPGLGQLCFKQLGEGLRPALPRSELHKLISPLQCLNHVWKLHHPQDGGPLPLPTHPFPYSRLPHPFPFHPLQPWKPHPLESFLGKLACVDSQKPLPDPHLSKLACVDSPKPLPGPHLEPSCLSRGAHEKFSVEEYLVHALQGSVSSGQAHSLTSLAKTWAARGSRSREPSPKTEDNEGVLLTEKLKPVDYEYREEVHWATHQLRLGRGSFGEVHRMEDKQTGFQCAVKKVRLEVFRAEELMACAGLTSPRIVPLYGAVREGPWVNIFMELLEGGSLGQLVKEQGCLPEDRALYYLGQALEGLEYLHSRRILHGDVKADNVLLSSDGSHAALCDFGHAVCLQPDGLGKSLLTGDYIPGTETHMAPEVVLGRSCDAKVDVWSSCCMMLHMLNGCHPWTQFFRGPLCLKIASEPPPVREIPPSCAPLTAQAIQEGLRKEPIHRVSAAELGGKVNRALQQVGGLKSPWRGEYKEPRHPPPNQANYHQTLHAQPRELSPRAPGPRPAEETTGRAPKLQPPLPPEPPEPNKSPPLTLSKEESGMWEPLPLSSLEPAPARNPSSPERKATVPEQELQQLEIELFLNSLSQPFSLEEQEQILSCLSIDSLSLSDDSEKNPSKASQSSRDTLSSGVHSWSSQAEARSSSWNMVLARGRPTDTPSYFNGVKVQIQSLNGEHLHIREFHRVKVGDIATGISSQIPAAAFSLVTKDGQPVRYDMEVPDSGIDLQCTLAPDGSFAWSWRVKHGQLENRP
# partner: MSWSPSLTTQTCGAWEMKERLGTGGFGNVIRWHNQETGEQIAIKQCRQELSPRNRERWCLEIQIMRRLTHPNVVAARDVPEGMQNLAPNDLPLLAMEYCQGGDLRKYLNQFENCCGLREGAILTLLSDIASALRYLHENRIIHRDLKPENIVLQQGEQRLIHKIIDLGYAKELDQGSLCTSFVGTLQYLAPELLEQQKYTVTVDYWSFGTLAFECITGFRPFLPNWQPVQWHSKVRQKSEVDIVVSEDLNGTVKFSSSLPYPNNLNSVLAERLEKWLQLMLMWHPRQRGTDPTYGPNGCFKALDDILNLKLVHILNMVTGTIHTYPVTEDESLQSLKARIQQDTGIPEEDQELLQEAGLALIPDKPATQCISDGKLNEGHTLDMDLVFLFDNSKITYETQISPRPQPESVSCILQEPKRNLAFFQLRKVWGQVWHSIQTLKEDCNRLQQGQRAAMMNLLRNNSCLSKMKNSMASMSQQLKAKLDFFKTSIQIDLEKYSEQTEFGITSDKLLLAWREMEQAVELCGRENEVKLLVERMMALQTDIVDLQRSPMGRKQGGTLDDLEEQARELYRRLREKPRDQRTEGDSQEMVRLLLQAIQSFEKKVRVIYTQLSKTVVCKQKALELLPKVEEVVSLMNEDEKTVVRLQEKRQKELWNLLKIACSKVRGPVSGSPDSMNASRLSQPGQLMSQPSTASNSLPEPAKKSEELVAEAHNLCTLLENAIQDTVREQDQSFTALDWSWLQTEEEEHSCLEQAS
# B2: Inhibitor of nuclear factor kappa-B kinase subunit alpha (Homo sapiens), O15111 (parent)
# chain: MERPPGLRPGAGGPWEMRERLGTGGFGNVCLYQHRELDLKIAIKSCRLELSTKNRERWCHEIQIMKKLNHANVVKACDVPEELNILIHDVPLLAMEYCSGGDLRKLLNKPENCCGLKESQILSLLSDIGSGIRYLHENKIIHRDLKPENIVLQDVGGKIIHKIIDLGYAKDVDQGSLCTSFVGTLQYLAPELFENKPYTATVDYWSFGTMVFECIAGYRPFLHHLQPFTWHEKIKKKDPKCIFACEEMSGEVRFSSHLPQPNSLCSLVVEPMENWLQLMLNWDPQQRGGPVDLTLKQPRCFVLMDHILNLKIVHILNMTSAKIISFLLPPDESLHSLQSRIERETGINTGSQELLSETGISLDPRKPASQCVLDGVRGCDSYMVYLFDKSKTVYEGPFASRSLSDCVNYIVQDSKIQLPIIQLRKVWAEAVHYVSGLKEDYSRLFQGQRAAMLSLLRYNANLTKMKNTLISASQQLKAKLEFFHKSIQLDLERYSEQMTYGISSEKMLKAWKEMEEKAIHYAEVGVIGYLEDQIMSLHAEIMELQKSPYGRRQGDLMESLEQRAIDLYKQLKHRPSDHSYSDSTEMVKIIVHTVQSQDRVLKELFGHLSKLLGCKQKIIDLLPKVEVALSNIKEADNTVMFMQGKRQKEIWHLLKIACTQSSARSLVGSSLEGAVTPQTSAWLPPTSAEHDHSLSCVVTPQDGETSAQMIEENLNCLGHLSTIIHEANEEQGNSMMNLDWSWLTE
# B3: Inhibitor of nuclear factor kappa-B kinase subunit beta (Homo sapiens), O14920 (parent)
# chain: B1 partner
# B4: Mitogen-activated protein kinase kinase kinase 14 (Homo sapiens), Q99558 (parent)
# chain: B1 chain
# partner: B2 chain
# Variants of: B1
# Details: with ikkb_human IKBKB
row,effect of a mutation on the interaction,Variant
1,disrupting interaction,K429A;K430A

# Variants of: B2
# Details: with ikba_human NFKBIA
row,effect of a mutation on the interaction,Variant
1,disrupting interaction,K44A
2,decreasing interaction,S176A

# Variants of: B2
# Details: with ikba_human NFKBIA
# Remark: another data set of the same source
row,effect of a mutation on the interaction,Variant
1,increasing interaction,S176E

# Variants of: B2
# Details: with MAP3K14, Q99558
row,effect of a mutation on the interaction,Variant
1,decreasing interaction,S176A

# Variants of: B3
# Details: with ikba_human NFKBIA
row,effect of a mutation on the interaction,Variant
1,decreasing interaction,K44A

# Variants of: B4
# Details: with ikka_human CHUK, O15111
row,effect of a mutation on the interaction,Variant
1,disrupting interaction,K429A;K430A
